Assay results as given in the supplement of paper PMC10065799, “High-throughput profiling of sequence recognition by tyrosine kinases and SH2 domains using bacterial peptide display” (eLife, 2023).

Columns and labels:
AncSZ = assay: phosphorylation enrichment, bacterial display (enrichment ratio); higher = better substrate or ligand; peptides without Tyr show the background
EPHB1 = EPHB1 (UniProt P54762); assay: as above
EPHB2 = EPHB2 (UniProt P29323); assay: as above
FGFR1 = FGFR1 (UniProt P11362); assay: as above
FGFR3 = FGFR3 (UniProt P22607); assay: as above
Sequence of FGFR3 (P22607 whole entry, looked up): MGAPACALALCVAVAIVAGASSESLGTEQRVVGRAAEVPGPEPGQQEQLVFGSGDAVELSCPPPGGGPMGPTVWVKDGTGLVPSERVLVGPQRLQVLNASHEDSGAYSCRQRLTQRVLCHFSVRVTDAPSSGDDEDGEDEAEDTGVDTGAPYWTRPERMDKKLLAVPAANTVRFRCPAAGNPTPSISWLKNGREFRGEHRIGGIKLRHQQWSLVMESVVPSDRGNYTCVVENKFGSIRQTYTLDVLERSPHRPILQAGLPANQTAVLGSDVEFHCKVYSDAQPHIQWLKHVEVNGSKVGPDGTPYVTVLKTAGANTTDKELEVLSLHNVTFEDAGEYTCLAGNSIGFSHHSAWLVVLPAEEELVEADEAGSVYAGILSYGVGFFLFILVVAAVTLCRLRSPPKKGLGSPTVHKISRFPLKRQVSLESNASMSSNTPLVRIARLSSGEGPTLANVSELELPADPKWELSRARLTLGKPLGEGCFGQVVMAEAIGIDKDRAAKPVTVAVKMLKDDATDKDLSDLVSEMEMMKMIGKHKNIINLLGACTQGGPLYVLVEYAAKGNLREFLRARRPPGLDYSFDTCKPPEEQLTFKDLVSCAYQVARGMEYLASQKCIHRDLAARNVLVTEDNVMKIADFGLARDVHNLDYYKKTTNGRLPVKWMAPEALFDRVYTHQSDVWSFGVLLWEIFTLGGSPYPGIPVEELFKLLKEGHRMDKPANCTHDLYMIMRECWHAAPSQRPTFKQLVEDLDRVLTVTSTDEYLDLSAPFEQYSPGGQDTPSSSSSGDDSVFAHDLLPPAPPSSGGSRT

Fer (mouse) = assay: as above
Fes = Fes (UniProt P07332); assay: as above
Fyn = Fyn (UniProt P06241); assay: as above
Sequence of Fyn (P06241 whole entry, looked up): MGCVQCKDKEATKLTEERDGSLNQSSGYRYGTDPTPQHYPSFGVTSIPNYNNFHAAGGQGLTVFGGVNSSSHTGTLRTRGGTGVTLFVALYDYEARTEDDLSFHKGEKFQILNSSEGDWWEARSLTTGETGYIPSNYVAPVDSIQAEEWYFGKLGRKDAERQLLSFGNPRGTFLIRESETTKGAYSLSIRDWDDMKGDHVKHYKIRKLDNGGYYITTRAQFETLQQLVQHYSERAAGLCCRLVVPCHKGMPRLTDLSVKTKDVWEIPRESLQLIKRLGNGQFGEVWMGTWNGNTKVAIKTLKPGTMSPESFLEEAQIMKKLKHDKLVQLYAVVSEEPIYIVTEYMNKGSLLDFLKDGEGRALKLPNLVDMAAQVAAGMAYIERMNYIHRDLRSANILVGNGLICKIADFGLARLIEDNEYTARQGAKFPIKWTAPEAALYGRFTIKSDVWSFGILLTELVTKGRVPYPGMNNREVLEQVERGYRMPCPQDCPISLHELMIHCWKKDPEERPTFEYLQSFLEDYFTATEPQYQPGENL

Hck = Hck (UniProt P08631); assay: as above
Jak2 = Jak2 (UniProt O60674); assay: as above
MERTK = MERTK (UniProt Q12866); assay: as above
Sequence of MERTK (Q12866 whole entry, looked up): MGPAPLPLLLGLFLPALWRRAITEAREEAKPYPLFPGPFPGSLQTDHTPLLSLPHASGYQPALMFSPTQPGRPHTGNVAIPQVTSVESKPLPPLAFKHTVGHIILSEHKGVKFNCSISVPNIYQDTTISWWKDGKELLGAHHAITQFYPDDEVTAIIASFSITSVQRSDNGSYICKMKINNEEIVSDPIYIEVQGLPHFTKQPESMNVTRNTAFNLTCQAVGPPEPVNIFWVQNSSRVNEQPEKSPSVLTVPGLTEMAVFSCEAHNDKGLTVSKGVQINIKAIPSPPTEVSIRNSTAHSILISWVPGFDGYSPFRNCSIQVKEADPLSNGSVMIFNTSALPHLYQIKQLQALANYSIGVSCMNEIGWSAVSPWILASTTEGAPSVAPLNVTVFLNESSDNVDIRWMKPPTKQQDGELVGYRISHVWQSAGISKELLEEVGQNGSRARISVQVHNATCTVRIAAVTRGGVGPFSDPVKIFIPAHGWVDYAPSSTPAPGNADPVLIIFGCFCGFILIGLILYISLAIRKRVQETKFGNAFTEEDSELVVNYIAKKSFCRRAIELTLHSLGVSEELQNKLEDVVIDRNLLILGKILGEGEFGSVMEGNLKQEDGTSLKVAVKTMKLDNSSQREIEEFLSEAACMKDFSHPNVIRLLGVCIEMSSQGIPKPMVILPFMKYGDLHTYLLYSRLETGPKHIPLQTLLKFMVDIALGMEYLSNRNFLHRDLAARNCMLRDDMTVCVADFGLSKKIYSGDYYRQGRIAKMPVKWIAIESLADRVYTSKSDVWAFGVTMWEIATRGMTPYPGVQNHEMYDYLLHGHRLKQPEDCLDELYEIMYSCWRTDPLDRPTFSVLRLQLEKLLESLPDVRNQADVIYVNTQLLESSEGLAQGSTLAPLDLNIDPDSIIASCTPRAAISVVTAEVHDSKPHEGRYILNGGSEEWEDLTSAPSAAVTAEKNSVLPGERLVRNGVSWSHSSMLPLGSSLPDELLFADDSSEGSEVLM

c-Abl (mouse) = assay: as above
c-Src = assay: as above
Grb2 SH2 = Grb2 SH2 (UniProt P62993); assay: SH2 binding enrichment of the phosphorylated peptide, bacterial display (enrichment ratio); higher = better substrate or ligand; peptides without Tyr show the background
Sequence of Grb2 SH2 (P62993 whole entry, looked up): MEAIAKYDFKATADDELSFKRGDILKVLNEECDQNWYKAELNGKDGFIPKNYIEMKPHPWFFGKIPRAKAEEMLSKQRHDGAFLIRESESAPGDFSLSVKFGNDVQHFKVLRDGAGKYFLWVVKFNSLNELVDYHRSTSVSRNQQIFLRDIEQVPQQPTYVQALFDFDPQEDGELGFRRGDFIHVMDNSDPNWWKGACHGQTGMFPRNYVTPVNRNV

SHP2-C SH2 = assay: as above
c-Src SH2 = assay: as above
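Throughout, for SH2 binding enrichment of the phosphorylated peptide, bacterial display: peptide library displayed on the E. coli surface as eCPX fusions, selected cells deep-sequenced, score is each peptide's frequency after selection divided by its frequency in the input.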
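Throughout, for phosphorylation enrichment, bacterial display: 11-residue human phosphosite peptides and single-mutation variants displayed on the E. coli surface, counted by deep sequencing, each peptide's frequency after selection divided by its frequency in the unselected input library; frequency after pTyr selection over input frequency; kinase dosed for 20-30% of maximal phosphorylation in three min.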

Sequence of EPHB1 (P54762 whole entry, looked up): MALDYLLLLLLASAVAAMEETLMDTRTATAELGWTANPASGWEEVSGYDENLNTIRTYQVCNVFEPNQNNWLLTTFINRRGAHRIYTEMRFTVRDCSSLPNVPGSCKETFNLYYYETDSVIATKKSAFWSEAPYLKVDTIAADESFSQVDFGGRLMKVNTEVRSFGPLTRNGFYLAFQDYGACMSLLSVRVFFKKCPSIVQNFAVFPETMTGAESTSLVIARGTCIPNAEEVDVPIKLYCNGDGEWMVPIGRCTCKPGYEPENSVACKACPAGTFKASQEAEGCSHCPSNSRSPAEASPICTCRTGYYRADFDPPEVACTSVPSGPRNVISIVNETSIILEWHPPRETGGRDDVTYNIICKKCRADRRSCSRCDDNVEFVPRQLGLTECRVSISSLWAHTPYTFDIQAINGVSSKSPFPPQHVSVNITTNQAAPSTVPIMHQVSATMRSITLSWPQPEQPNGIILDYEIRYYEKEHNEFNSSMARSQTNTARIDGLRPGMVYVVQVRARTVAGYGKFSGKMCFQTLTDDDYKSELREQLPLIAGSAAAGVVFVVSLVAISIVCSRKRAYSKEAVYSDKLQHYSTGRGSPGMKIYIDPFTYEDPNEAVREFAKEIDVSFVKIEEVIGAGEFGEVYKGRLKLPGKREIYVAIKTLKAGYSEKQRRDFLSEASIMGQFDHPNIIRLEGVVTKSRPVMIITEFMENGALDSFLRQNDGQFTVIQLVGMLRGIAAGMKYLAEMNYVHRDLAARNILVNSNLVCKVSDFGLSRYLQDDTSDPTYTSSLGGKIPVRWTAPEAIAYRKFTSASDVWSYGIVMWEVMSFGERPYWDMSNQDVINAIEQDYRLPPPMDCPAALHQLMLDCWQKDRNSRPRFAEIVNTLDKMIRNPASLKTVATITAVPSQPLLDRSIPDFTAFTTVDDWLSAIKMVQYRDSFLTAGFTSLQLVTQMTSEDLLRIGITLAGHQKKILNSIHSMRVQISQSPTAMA
Sequence of EPHB2 (P29323 whole entry, looked up): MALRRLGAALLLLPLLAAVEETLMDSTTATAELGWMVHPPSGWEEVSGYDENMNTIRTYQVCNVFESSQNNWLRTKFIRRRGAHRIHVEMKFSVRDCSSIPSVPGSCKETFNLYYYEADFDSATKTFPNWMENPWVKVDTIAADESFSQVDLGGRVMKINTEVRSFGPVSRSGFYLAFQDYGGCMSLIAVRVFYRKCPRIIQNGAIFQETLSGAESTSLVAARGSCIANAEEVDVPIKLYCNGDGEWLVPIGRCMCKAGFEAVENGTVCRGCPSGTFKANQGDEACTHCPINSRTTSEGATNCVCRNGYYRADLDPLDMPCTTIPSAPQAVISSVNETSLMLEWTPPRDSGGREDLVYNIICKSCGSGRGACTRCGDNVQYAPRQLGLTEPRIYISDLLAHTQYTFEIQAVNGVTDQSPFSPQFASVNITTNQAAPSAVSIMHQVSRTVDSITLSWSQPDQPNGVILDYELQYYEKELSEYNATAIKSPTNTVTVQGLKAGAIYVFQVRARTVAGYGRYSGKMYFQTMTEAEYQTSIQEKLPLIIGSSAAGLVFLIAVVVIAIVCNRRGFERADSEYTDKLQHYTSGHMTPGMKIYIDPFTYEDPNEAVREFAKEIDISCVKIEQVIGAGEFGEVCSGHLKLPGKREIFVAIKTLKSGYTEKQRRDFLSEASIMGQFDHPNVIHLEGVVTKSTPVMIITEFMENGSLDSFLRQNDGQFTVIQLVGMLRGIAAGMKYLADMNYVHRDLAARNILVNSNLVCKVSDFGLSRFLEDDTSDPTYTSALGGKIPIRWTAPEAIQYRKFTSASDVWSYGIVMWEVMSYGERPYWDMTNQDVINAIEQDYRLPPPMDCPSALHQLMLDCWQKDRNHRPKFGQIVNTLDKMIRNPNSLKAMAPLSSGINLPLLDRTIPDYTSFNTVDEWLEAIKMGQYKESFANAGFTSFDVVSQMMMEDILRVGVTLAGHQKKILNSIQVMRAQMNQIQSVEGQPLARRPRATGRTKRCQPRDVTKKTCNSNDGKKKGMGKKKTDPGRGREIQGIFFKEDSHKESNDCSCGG

Sequence | phosphorylation enrichment (AncSZ) | phosphorylation enrichment (EPHB1) | phosphorylation enrichment (EPHB2) | phosphorylation enrichment (FGFR1) | phosphorylation enrichment (FGFR3) | phosphorylation enrichment (Fer (mouse)) | phosphorylation enrichment (Fes) | phosphorylation enrichment (Fyn) | phosphorylation enrichment (Hck) | phosphorylation enrichment (Jak2) | phosphorylation enrichment (MERTK) | phosphorylation enrichment (c-Abl (mouse)) | phosphorylation enrichment (c-Src) | SH2 binding enrichment (Grb2 SH2) | SH2 binding enrichment (SHP2-C SH2) | SH2 binding enrichment (c-Src SH2)
SVESPYGSVTF [NDRG2_Y47_T45S] | 0.662 | 0.501 | 0.862 | 0.456 | 0.496 | 9.44 | 0.696 | 7.99 | 5.03 | 0.572 | 0.525 | 0.57 | 5.95 | 0.689 | 0.688 | 0.376
SVMAEYGLFGA [VSX2_Y219_YF] | 0.737 | 0.477 | 0.596 | 0.488 | 0.553 | 0.424 | 0.774 | 7.22 | 2.94 | 0.679 | 0.475 | 0.594 | 6.17 | 0.86 | 0.719 | 0.471
SVVMPYEPPEV [TP53_Y220_V218M] | 1.27 | 0.559 | 0.595 | 0.559 | 0.674 | 0.549 | 1.12 | 0.56 | 0.481 | 0.897 | 0.492 | 0.66 | 0.482 | 0.877 | 0.738 | 1.06
SVVVPDEPPEV [TP53_Y220_Y220D] | 1.33 | 0.706 | 0.665 | 0.724 | 0.687 | 0.647 | 1.39 | 0.582 | 0.567 | 1.19 | 0.586 | 0.782 | 0.522 | 0.755 | 0.794 | 0.576
SVVVPSEPPEV [TP53_Y220_Y220S] | 0.971 | 0.598 | 0.642 | 0.503 | 0.755 | 0.426 | 1.12 | 0.511 | 0.484 | 0.851 | 0.431 | 0.74 | 0.449 | 1.03 | 0.958 | 0.577
SVVVPYAPPEV [TP53_Y220_E221A] | 0.756 | 0.508 | 0.499 | 0.589 | 0.595 | 0.474 | 0.814 | 0.422 | 0.43 | 0.719 | 0.423 | 0.73 | 0.427 | 0.766 | 0.602 | 0.463
SVVVPYEPPEV [TP53_Y220] | 1.25 | 0.532 | 0.645 | 0.548 | 0.748 | 0.556 | 1.16 | 0.502 | 0.55 | 1 | 0.531 | 0.798 | 0.459 | 1.01 | 1.11 | 0.888
